Test [1] has as its target CYSL-1 (Caenorhabditis elegans, UniProt Q93244, R259K). Description: O-acetylserine sulfhydrylase assay. In kind it is biochemical. As to conditions: co-substrate sulfide.
Test [2] concerns the target T1, recombinant CYSL-1 (C. elegans, UniProt Q93244 1-341).
T1 sequence (looked up): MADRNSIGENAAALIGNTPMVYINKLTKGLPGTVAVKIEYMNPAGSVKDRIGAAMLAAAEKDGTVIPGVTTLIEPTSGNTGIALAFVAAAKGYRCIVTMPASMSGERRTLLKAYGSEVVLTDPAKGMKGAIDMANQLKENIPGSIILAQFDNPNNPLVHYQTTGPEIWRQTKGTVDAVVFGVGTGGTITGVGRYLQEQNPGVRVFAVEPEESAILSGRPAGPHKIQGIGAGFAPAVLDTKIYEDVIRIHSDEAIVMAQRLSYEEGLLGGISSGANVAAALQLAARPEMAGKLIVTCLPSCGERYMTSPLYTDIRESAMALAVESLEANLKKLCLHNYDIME
Description: other fluorescence titration.

Sequence of CYSL-1 (Q93244 whole entry R259K): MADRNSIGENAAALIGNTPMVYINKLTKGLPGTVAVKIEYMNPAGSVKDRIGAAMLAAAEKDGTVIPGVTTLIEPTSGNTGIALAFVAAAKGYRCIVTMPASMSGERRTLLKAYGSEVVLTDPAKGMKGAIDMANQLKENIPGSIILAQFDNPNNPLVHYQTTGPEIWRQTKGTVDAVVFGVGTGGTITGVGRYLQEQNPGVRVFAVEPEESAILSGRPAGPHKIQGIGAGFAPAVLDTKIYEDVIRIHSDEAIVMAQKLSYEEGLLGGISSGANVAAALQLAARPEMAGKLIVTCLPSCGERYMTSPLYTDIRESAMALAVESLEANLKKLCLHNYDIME

In the case of `CC(=O)OC[C@H](N)C(=O)O` [OAS], the O-acetylserine sulfhydrylase assay result in test [1] is on record as “exhibited levels of OAS sulfhydrylase activity similar to that of wild-type CYSL-1”. As to GLPPPPSTNPEYYI (peptide, UniProt G5EBV0 710-723, looked up) [EGL-9 C-terminal peptide, last 14 residues], the binding result in test [2] is “binds”. Still for that read-out and setting: the same measure for PPSTNPEYYI (peptide, UniProt G5EBV0 714-723, looked up) [EGL-9 C-terminal peptide, last 10 residues]: “binds”.

The values are drawn from paper PMC3305813 (Neuron, 2012).
